The source of these data is patent US9260500B2, “Peptide and use thereof” (Takeda Pharmaceutical Company Limited, priority 2009, dated 2016).

Starred links: 1 amine or outer side, 2 acyl side, 3 side chain; linkers in the order of their positions; H or OH if unused. Non-standard residues stand in square brackets, D forms with d. *: point of attachment. X3 = ((1S)-1-Carboxy-2-hydroxyethyl)carbamoyl, O=C(O)[C@H](CO)NC(=O)*; X2 = (tetrahydro-2H-pyran-4-ylmethyl)carbamoyl, O=C(NCC1CCOCC1)*; (2-Carboxyethyl)carbamoyl = O=C(O)CCNC(=O)*; Imidazole4carbonyl = O=C(c1cnc[nH]1)*; tBuAla = CC(C)(C)C[C@H](N)C(=O)O; 4Pal = N[C@@H](Cc1ccncc1)C(=O)O; dHyp = O=C(O)[C@H]1C[C@H](O)CN1; Cha = N[C@@H](CC1CCCCC1)C(=O)O; Suc = O=C(CCC(=O)[*:2])[*:1]; Iva = CC[C@](C)(N)C(=O)O; Aib = CC(C)(N)C(=O)O

Assay [1] concerns the target T1, human Y2 receptor (Homo sapiens, UniProt P49146).
T1 construct: expressed in transfected cells; membrane fraction
T1 sequence (P49146 1-381): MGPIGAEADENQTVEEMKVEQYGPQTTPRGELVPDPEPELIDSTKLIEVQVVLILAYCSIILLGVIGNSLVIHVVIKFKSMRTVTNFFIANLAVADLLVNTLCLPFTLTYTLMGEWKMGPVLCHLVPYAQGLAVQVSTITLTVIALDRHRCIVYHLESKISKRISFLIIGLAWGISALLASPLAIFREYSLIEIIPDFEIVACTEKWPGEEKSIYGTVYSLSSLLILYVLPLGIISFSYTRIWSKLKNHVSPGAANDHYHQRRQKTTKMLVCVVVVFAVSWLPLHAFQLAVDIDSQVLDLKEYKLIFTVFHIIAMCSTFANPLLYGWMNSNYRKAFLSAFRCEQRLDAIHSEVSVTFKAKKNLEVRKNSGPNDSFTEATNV
Briefly: Receptor Binding Assay (RBA) for Human Y2, [125I]-PYY displacement on hY2R/CHO membrane fraction. Particulars: IC50 of test compound/IC50 of PYY(3-36) (PYY(3-36) taken as 1). The essentials:
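hY2R stably expressed in CHO/dhfr− cells; membrane fraction prepared from cells disrupted in 10 mM NaHCO3, 5 mM EDTA buffer with protease inhibitors. Binding read as displacement of [125I]-PYY.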

Assay [2] has as its target T1, human Y2 receptor. Briefly: Human Y2 Receptor G Protein Binding Assay (GBA), [35S]GTPγS. It counts as biochemical. Particulars: EC50 of test compound/EC50 of PYY(3-36) (PYY3-36 taken as 1), hY2R/CHO membrane fraction. The procedure, abridged:
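Agonism measured as [35S]GTPγS binding, read by GF/C filtration and scintillation counting after 120 min at room temperature, using human Y2 membranes at 1 μg protein/mL in pH 7.4 Tris/MgCl2/NaCl/GDP buffer. Compound serially diluted 100 μM–1 nM; EC50 normalized to PYY(3-36) (ratio = compound/PYY).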
A general note: GTPγS resists hydrolysis and so accumulates on activated G proteins.

Another assay concerns male C57EL/6J mice. Kind of assay: 3-Days Continuous Subcutaneous Administration Test-1 (food intake suppressing activity). Type of assay: in vivo, mouse. The settings on record: 0.03 mg/kg/day, subcutaneous Alzet pump, food consumption over 3 days; relative to food intake suppression rate for PYY(3-36) (1 mg/kg/day) taken as 100%. The essentials: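 Male […] mice, 12-13 weeks, received compound at 0.03 mg/kg/day by subcutaneous osmotic pump (50% DMSO vehicle), housed singly with free food access. Food consumed over 3 days measured; suppression expressed relative to PYY(3-36) (1 mg/kg/day) set as 100%.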

In the case of “[(1S)-1-Carboxy-2-hydroxyethyl]carbamoyl-[D-Pro24, Iva25, Pya(4)26, Cha27,36, Aib28,31, Lys30]-PYY(23-36) (X3-S[dP][Iva][4Pal][Cha][Aib]NK[Aib]TRQR[Cha]-NH2; SMILES CC[C@](C)(NC(=O)[C@H]1CCCN1C(=O)[C@H](CO)NC(=O)N[C@@H](CO)C(=O)O)C(=O)N[C@@H](Cc1ccncc1)C(=O)N[C@@H](CC1CCCCC1)C(=O)NC(C)(C)C(=O)N[C@@H](CC(N)=O)C(=O)N[C@@H](CCCCN)C(=O)NC(C)(C)C(=O)N[C@H](C(=O)N[C@@H](CCCNC(=N)N)C(=O)N[C@@H](CCC(N)=O)C(=O)N[C@@H](CCCNC(=N)N)C(=O)N[C@@H](CC1CCCCC1)C(N)=O)[C@@H](C)O) [compound No. 332]”, in the assay with human Y2 receptor [1], the “RBA IC50 Ratio” value is 3.5. For the same substance, the “GBA EC50 Ratio” value with human Y2 receptor [2] is given as 3.0. Also, the “food intake suppression rate (%)” value with male C57EL/6J mice stood at 32%.

With “4-Imidazolecarbonyl-[D-Hyp24, Iva25, Pya(4)26, Cha27,36, Leu(Me)28, Lys30, Aib31]-PYY(23-36) (Imidazole4carbonyl-S[dHyp][Iva][4Pal][Cha][tBuAla]NK[Aib]TRQR[Cha]-NH2; ends and bridges not checked) [compound No. 336]”, the “RBA IC50 Ratio” value with human Y2 receptor [1] stood at 0.75. Besides, the “GBA EC50 Ratio” value in the assay with human Y2 receptor [2] turned out to be 1.4. Further, the “food intake suppression rate (%)” value with male C57EL/6J mice turned out to be 52%.

“3-Carboxypropionyl-[D-Hyp24, Iva25, Pya(4)26, Cha27,36, Leu(Me)28, Lys30, Aib31]-PYY(23-36) (Suc-S[dHyp][Iva][4Pal][Cha][tBuAla]NK[Aib]TRQR[Cha]-NH2; SMILES CC[C@](C)(NC(=O)[C@H]1C[C@H](O)CN1C(=O)[C@H](CO)NC(=O)CCC(=O)O)C(=O)N[C@@H](Cc1ccncc1)C(=O)N[C@@H](CC1CCCCC1)C(=O)N[C@@H](CC(C)(C)C)C(=O)N[C@@H](CC(N)=O)C(=O)N[C@@H](CCCCN)C(=O)NC(C)(C)C(=O)N[C@H](C(=O)N[C@@H](CCCNC(=N)N)C(=O)N[C@@H](CCC(N)=O)C(=O)N[C@@H](CCCNC(=N)N)C(=O)N[C@@H](CC1CCCCC1)C(N)=O)[C@@H](C)O) [compound No. 350]”: the “RBA IC50 Ratio” value in the assay with human Y2 receptor [1] worked out at 0.92. Moreover, the “GBA EC50 Ratio” value in the assay with human Y2 receptor [2] amounted to 1.9. In addition, the “food intake suppression rate (%)” value with male C57EL/6J mice is 41%.

Consider “(Tetrahydro-2H-pyran-4-ylmethyl)carbamoyl-[D-Pro24, Pya(4)26, Cha27,36, Aib28,31, Lys30]-PYY(23-36) (X2-S[dP]R[4Pal][Cha][Aib]NK[Aib]TRQR[Cha]-NH2; SMILES C[C@@H](O)[C@H](NC(=O)C(C)(C)NC(=O)[C@H](CCCCN)NC(=O)[C@H](CC(N)=O)NC(=O)C(C)(C)NC(=O)[C@H](CC1CCCCC1)NC(=O)[C@H](Cc1ccncc1)NC(=O)[C@H](CCCNC(=N)N)NC(=O)[C@H]1CCCN1C(=O)[C@H](CO)NC(=O)NCC1CCOCC1)C(=O)N[C@@H](CCCNC(=N)N)C(=O)N[C@@H](CCC(N)=O)C(=O)N[C@@H](CCCNC(=N)N)C(=O)N[C@@H](CC1CCCCC1)C(N)=O) [compound No. 325]”, for which the “RBA IC50 Ratio” value with human Y2 receptor [1] turned out to be 0.82. In addition, the “GBA EC50 Ratio” value with human Y2 receptor [2] turned out to be 0.7. Further, the “food intake suppression rate (%)” value in the assay with male C57EL/6J mice is 47%.

Take “(2-Carboxyethyl)carbamoyl-[D-Pro24, Pya(4)26, Cha27,36, Aib28,31, Lys30]-PYY(23-36) ({(2-Carboxyethyl)carbamoyl}-S[dP]R[4Pal][Cha][Aib]NK[Aib]TRQR[Cha]-NH2; SMILES C[C@@H](O)[C@H](NC(=O)C(C)(C)NC(=O)[C@H](CCCCN)NC(=O)[C@H](CC(N)=O)NC(=O)C(C)(C)NC(=O)[C@H](CC1CCCCC1)NC(=O)[C@H](Cc1ccncc1)NC(=O)[C@H](CCCNC(=N)N)NC(=O)[C@H]1CCCN1C(=O)[C@H](CO)NC(=O)NCCC(=O)O)C(=O)N[C@@H](CCCNC(=N)N)C(=O)N[C@@H](CCC(N)=O)C(=O)N[C@@H](CCCNC(=N)N)C(=O)N[C@@H](CC1CCCCC1)C(N)=O) [compound No. 326]”: the “RBA IC50 Ratio” value with human Y2 receptor [1] is recorded as 1.3. Moreover, the “GBA EC50 Ratio” value in the assay with human Y2 receptor [2] worked out at 0.94. In the assay with male C57EL/6J mice, the “food intake suppression rate (%)” value is 57%.
